Assay results published in patent publication US9803012B2, “Compositions and methods for regulating SAS1R” (UNIVERSITY OF VIRGINIA PATENT FOUNDATION, priority 2005, dated 2017).

Legend:
M2 oocytes = assay: Co-localization of rSLLP1 binding sites and SAS1R on oocytes; assay type: cell-based, mouse; settings: oocytes incubated with rSLLP1, probed with SLLP1 and SAS1R antibodies
Experimental: Zona intact-, zona free oocytes, early embryos and sperm were collected as before (10), blocked and probed with 1st and 2nd antibody and imaged with UV-microscopy. For co-LC studies, gametes were incubated with soluble rSAS1R or rSLLP1, washed, probed with 1st- and 2nd antibodies and imaged with UV-microscopy.
Mouse oocytes were also examined for co-localization of SLLP1 binding sites and SAS1R localization. Oocytes were incubated with gradually increasing concentrations (0-100 μg/ml) of recombinant SLLP1 for 1 h, and then oocytes were washed five times and incubated with guinea pig anti-recombinant SAS1R polyclonal antibody (1:200) and rat anti-recombinant SLLP1 polyclonal antibody (1:200), simultaneously, in 0.1% NGS/media for 1 h at 37° C. and 5% CO2. Oocytes were washed five times and incubated with goat anti-guinea pig/Cy3 Red antibody (1:200) (Jackson ImmunoResearch, PA) and goat anti-rat/FITC Green antibody (1:200) (Jackson ImmunoResearch, PA), in 0.1% NGS/media for 1 h at 37° C. and 5% CO2. Oocytes were washed and mounted in media on glass slides. SLLP1 and SAS1R images were captured separately with MrGrab 1.0 (Carl Zeiss Vision GmbH, Germany) on the Zeiss Standard 18 ultraviolet microscope and were merged digitally to evaluate their respective localizations.

cumulus intact oocytes = assay: In vitro fertilization with cumulus-oocyte complexes (SLLP1 antiserum, recmSLLP1); assay type: cell-based, mouse; settings: for % Fertilization: oocytes 45 min prior to insemination
Experimental: Hybrid F1 mice (C57BL/6J×CBA) were used in all experiments. Suspensions of epididymal spermatozoa from sexually mature male mice were prepared for insemination of isolated oocytes. Oocytes were obtained from 28-day-old females superovulated with 10 IU PMSG and 10 IU hCG, injected intraperitoneally 48 h apart. Females were killed 16 h after hCG injection and both oviducts were immediately removed and placed in mineral oil.
In vitro fertilization with cumulus intact oocytes was conducted with sperm dispersed from cauda epididymides placed for 5 min in 200 μl drops of fertilization medium under paraffin oil. The sperm suspension was diluted to a concentration of 10^6 sperm/ml in a volume of 200 μl and then incubated for 120 min in a humidified tissue culture incubator (37° C., 5% CO2 in air) to allow capacitation. In the experiments where anti-recmSLLP1 serum was tested, spermatozoa were incubated with varying concentrations of decomplemented (56° C., 30 min) immune or preimmune serum for the last 45 min of capacitation. In the experiments where recmSLLP1 was evaluated, spermatozoa were incubated under standard capacitating conditions.
Cumulus masses were placed in 135 μl drops of fertilization medium (one mass per drop) under paraffin oil and were incubated for 45 min with immune or preimmune serum or in presence or absence of recmSLLP1 prior to insemination. Fifteen μl of the sperm suspension (final concentration: 10^5 sperm/ml) was then added to each cumulus mass drop. Thus, sera or recombinant protein was present in the incubation droplet during gamete interaction. Six hours following insemination oocytes were relocated in 100 μl drops of fertilization medium under mineral oil. Following overnight incubation, eggs were stained in Hoechst dye (10 μg/ml) for 10 min and washed 3 times in fertilization medium. The eggs were then placed in a 5 μl drop of fertilization medium between a microscope slide and an elevated coverslip, and visualized at 160× using light and fluorescence microscopy (Zeiss Axioplan). Two cells embryos were scored as fertilized, while one-celled oocytes were scored as unfertilized.

recombinant MET = target: T1, recombinant MET (Mus musculus, UniProt Q9CWU5); assay: Far-Western analysis of MET and SLLP1; assay type: binding; settings: 7 μg recombinant MET, recombinant SLLP1 overlay 2 μg/ml
T1 construct: A complete cDNA encoding 440 amino acids was amplified from cDNA library (Ambion) of mouse ovary and cloned in pET expression vector; His-tag (pET fusion); made in house; host or cells: E. coli BL21
T1 sequence (Q9CWU5 1-440): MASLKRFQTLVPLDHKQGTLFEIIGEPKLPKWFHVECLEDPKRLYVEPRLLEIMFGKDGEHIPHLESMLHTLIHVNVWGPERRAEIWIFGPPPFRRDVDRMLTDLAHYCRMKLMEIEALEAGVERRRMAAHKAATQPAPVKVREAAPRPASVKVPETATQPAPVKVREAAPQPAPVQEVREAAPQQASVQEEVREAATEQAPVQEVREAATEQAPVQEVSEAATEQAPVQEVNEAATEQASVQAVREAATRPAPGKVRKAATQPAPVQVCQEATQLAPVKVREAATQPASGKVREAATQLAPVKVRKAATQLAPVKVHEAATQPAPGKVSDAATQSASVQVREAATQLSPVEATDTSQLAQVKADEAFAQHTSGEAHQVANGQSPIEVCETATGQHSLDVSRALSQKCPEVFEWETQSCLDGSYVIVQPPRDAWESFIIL
T1 sequence (Q9D9X8 94-221 partner limits assumed): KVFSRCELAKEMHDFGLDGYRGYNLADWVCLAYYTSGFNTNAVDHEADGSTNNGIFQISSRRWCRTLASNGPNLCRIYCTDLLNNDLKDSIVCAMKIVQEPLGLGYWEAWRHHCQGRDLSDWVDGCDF
Experimental: To that end, 7 μg of recombinant MET was loaded on 12% SDS-PAGE and transferred to nitrocellulose. The membrane was overlaid (OL) with recombinant SLLP1 (2 μg/ml) and probed with anti-SLLP1 monoclonal antibody and secondary antibody.

zona-free mouse eggs = assay: In vitro fertilization with zona-free eggs (sperm-oolemma binding and fusion); assay type: cell-based
Experimental: For the sperm-oolemma binding assay, two cauda epididymides were placed in 900 μl drops of fertilization medium under paraffin oil for the dense mass of spermatozoa to flow freely for ˜15 min and then diluted at 1×10^6/ml for 3 h of capacitation. Cumulus oocyte complexes were placed in 200 μl drops of TYH medium under paraffin oil. Cumulus cells were removed by treating the oocytes for 3 min with 1 mg/ml hyaluronidase in TYH medium and then washed 8 times in 50 μl drops. Zona pellucidae were loosened by treating the oocytes with 10 μg/ml chymotrypsin in TYH media for 1 min and loosened zonae were removed by mechanical agitation using a pulled Pasteur pipette. The oocytes were then washed 10 times and allowed to recover from chymotrypsin treatment by incubating in TYH media for 3 h, following which, they were stained with 10 μg/ml Hoechst dye for 10 min, and then gently washed. […]
To compare the effects of recmSLLP1 with human and chicken c lysozymes, spermatozoa were first incubated under standard capacitating conditions. Oocytes were pre-incubated for 45 min before insemination with recmSLLP1 (0.1 to 200 μg/ml) or with hSLLP1 (25 μg/ml) or with chicken or human lysozyme (50 μg/ml, 100 μg/ml). Untreated capacitated sperm were then added to the incubation drops containing the treated eggs with a final sperm concentration of 2.5×10^4/ml. Thus, in all the experiments performed the sera, the recombinant protein, or the lysozyme was present in the incubation droplet during gamete interaction. After 30 min of gamete co-incubation, oocytes were gently washed 5 times in TYH medium and placed between a microscope slide and an elevated coverslip and visualized at 160×. Binding to the oocyte was scored by counting the number of bound spermatozoa per oocyte using phase contrast. Fusion with the egg was scored by counting the number of decondensed sperm heads within each oocyte using fluorescence microscopy.

[1] = recmSLLP1 200 μg/ml (12.5 μM), oocytes pre-incubated
[2] = relative to the controls, including recombinant egg protein ePAD

B1: recmSLLP1: mature mouse SLLP1, residues 94 to 221, six-histidine C terminal tag, expressed in E. coli, about 15 kDa (protein)
chain: T1 sequence (Q9D9X8 94-221 partner limits assumed)
modifications: left off: small tags and cut ends
- binding to oocytes (M2 oocytes): binds to oocyte microvillar domain and co-localizes with native SAS1R
- difference in percentage of fertilization vs control (cumulus intact oocytes; recmSLLP1 50 μg/ml): no significant difference
- % Fertilization (cumulus intact oocytes; recmSLLP1 50 μg/ml): 48%
- inhibition of fertilization rate vs control (cumulus intact oocytes; recmSLLP1 200 μg/ml, P≦0.05): 73%
- % Fertilization (cumulus intact oocytes; recmSLLP1 200 μg/ml): 12%
- binding to purified MET (recombinant MET): strong signal
- sperm-egg binding and fusion (zona-free mouse eggs; 50 μg of mouse SLLP1): maximally inhibited
- inhibition of binding (zona-free mouse eggs; [1]): 100%
- inhibition of fusion (zona-free mouse eggs; [1]): 100%
- lowest concentration with significant effect on spermatozoa bound to or fused to the egg (zona-free mouse eggs; recmSLLP1 0.1-200 μg/ml): 0.1 µg/mL
- sperm-egg binding, number of sperm bound/egg (zona-free mouse eggs; [2]): essentially completely inhibit
- sperm-egg fusion (zona-free mouse eggs; [2]): essentially completely inhibit
